Data: patent publication US7271245B2, “Methods and compositions for inhibition of metastasis” (The Scripps Research Institute, priority 2004, dated 2007)

Legend:
[1] = system: BMS human breast cancer cells; assay: Haptotactic tumor cell migration toward fibrinogen (transwell); format: cell-based; conditions: 200 μM peptide, 16 hrs at 37° C.
Procedure: (§1) FIGS. 3A, 3B, 3C, 3D, 3E. scFv Bc-12 and Bc-15 inhibit αvβ3 mediated adhesive breast cancer cell functions. (A) Adhesion of BMS human breast cancer cells to fibrinogen (Fg), vitronectin (VN) or type I collagen (Col I) in the absence or presence of 3 μM Bc-12, Bc-15 or their RGE mutants Mut-12, Mut-15, compared to 200 μM GRGDSPK peptide (SEQ ID NO: 11). Protein coating concentrations: 10 μg/ml (VN, Col I) or 20 μg/ml (Fg). Adhesion time: 30 min at 37° C. (B) Effect of scFvs on haptotactic BMS cell migration toward a fibrinogen substrate (16 hrs at 37° C. in transwell chambers with or without 2 μM Bc-12, Bc-15 or their RGE mutants Mut-12 or Mut-15, compared to 200 μM GRGDSPK peptide) (SEQ ID NO: 11). (C) Effect of scFvs on breast cancer cell arrest during blood flow. Metastatic BMS cells, labeled with hydroethidine, were suspended in human blood (anticoagulated with 50 nM PPACK) and perfused over a collagen I matrix at a venous wall shear rate of 50 s^−1. Under these conditions, breast cancer cells arrest by αvβ3 mediated binding to adherent, thrombus forming platelets. Tumor cell adhesion was quantified by image acquisition at 30 predefined positions during blood flow. Left: representative images of platelet signal (thrombi, green fluorescence) and tumor cell signal (red fluorescence) at identical x,y positions. Right: Number of arrested tumor cells in the presence of 3 μM non-function blocking anti αv scFv Bc-20 or function blocking anti αvβ3 scFvs Bc-12 or Bc-15. (D) scFv Bc-15 is internalized by human breast cancer cells and reduces cell proliferation. Left: confocal images of BMS cells incubated for 4 hrs with FITC-Bc-15 at 4° C. (binding) versus 37° C. (allowing internalization). Right: Phase contrast images of BMS cell cultures 4 days after seeding in the presence of 2 μM RGE containing scFv Mut-15, or RGD containing Bc-15. […]
Cell adhesion and migration. Tumor cell adhesion under stationary conditions was analyzed as detailed earlier (19). […] Haptotactic tumor cell migration toward fibrinogen was analyzed in transwell chambers as detailed earlier. […]

[2] = system: BMS human breast cancer cells; assay: Tumor cell adhesion under stationary conditions; format: cell-based; conditions: 200 μM peptide, 30 min at 37° C.
Procedure: FIGS. 3A, 3B, 3C, 3D, 3E. scFv Bc-12 and Bc-15 inhibit αvβ3 mediated adhesive breast cancer cell functions. (A) Adhesion of BMS human breast cancer cells to fibrinogen (Fg), vitronectin (VN) or type I collagen (Col I) in the absence or presence of 3 μM Bc-12, Bc-15 or their RGE mutants Mut-12, Mut-15, compared to 200 μM GRGDSPK peptide (SEQ ID NO: 11). Protein coating concentrations: 10 μg/ml (VN, Col I) or 20 μg/ml (Fg). Adhesion time: 30 min at 37° C. (B) Effect of scFvs on haptotactic BMS cell migration toward a fibrinogen substrate (16 hrs at 37° C. in transwell chambers with or without 2 μM Bc-12, Bc-15 or their RGE mutants Mut-12 or Mut-15, compared to 200 μM GRGDSPK peptide) (SEQ ID NO: 11). (C) Effect of scFvs on breast cancer cell arrest during blood flow. Metastatic BMS cells, labeled with hydroethidine, were suspended in human blood (anticoagulated with 50 nM PPACK) and perfused over a collagen I matrix at a venous wall shear rate of 50 s^−1. Under these conditions, breast cancer cells arrest by αvβ3 mediated binding to adherent, thrombus forming platelets. Tumor cell adhesion was quantified by image acquisition at 30 predefined positions during blood flow. Left: representative images of platelet signal (thrombi, green fluorescence) and tumor cell signal (red fluorescence) at identical x,y positions. Right: Number of arrested tumor cells in the presence of 3 μM non-function blocking anti αv scFv Bc-20 or function blocking anti αvβ3 scFvs Bc-12 or Bc-15. (D) scFv Bc-15 is internalized by human breast cancer cells and reduces cell proliferation. Left: confocal images of BMS cells incubated for 4 hrs with FITC-Bc-15 at 4° C. (binding) versus 37° C. (allowing internalization). Right: Phase contrast images of BMS cell cultures 4 days after seeding in the presence of 2 μM RGE containing scFv Mut-15, or RGD containing Bc-15. (E) Effect of scFv Bc-12 on the viability of matrix deprived BMS breast cancer cells in ultra-low-adhesion plates in the presence or absence of 3.7 μM scFv, or 14.36 μM camptothecin as apoptosis inducing control. Measurement of apoptosis was based on cytoplasmic histone-associated DNA fragments after 20 hrs.
Cell adhesion and migration. Tumor cell adhesion under stationary conditions was analyzed as detailed earlier (19). Adhesion buffer was Hanks balanced salt solution (HBSS) pH 7.4, 0.5% BSA, 1 mM MgCl2, 0.2 mM MnCl2. For inhibition, cells were incubated for 5 min at RT either with 3 μM scFv or 200 μM GRGDSPK (SEQ ID NO: 11) peptide, then plated in the presence of inhibitor and allowed to attach for 30 min at 37° C. Haptotactic tumor cell migration toward fibrinogen was analyzed in transwell chambers as detailed earlier. Rolli, M., et al., Proc. Natl. Acad. Sci. U.S.A 100: 9482-9487, 2003. […]

integrin αvβ3 = assay: Flow cytometry, scFv binding to human tumor cell panel
Procedure: FIGS. 1A, 1B, 1C. Patient derived scFvs Bc-12 and Bc-15 recognize tumor cell integrin αvβ3 in a cation and activation dependent manner. Flow cytometric analyses in TBS with or without 1 mM Ca^2+, 1 mM Mg^2+, or 0.2 mM Mn^2+ as indicated. Binding of soluble scFv detected after incubation with anti-Flag M2 murine mAb followed by FITC-anti mouse F(ab′)2. (A) scFv binding to human melanoma cells (M21: αvβ3 plus other αv integrins) (M21-LIIb: αIIbβ3, no αv integrins) or lung adenocarcinoma cells (UCLA-P3: αv integrins, no β3 integrin). (B) scFv binding to M21 melanoma cells. (C) scFv binding to variants of MDA-MB 435 human breast cancer cells that lack (β^3−) or express αvβ3 either in a non-activated (β3WT, ParentCo) or activated form (β3D723R, Bone, Lung, and BMS metastatic cancer cells isolated from breast cancer patient blood).
Flow cytometry. scFv binding to human tumor cells was analyzed by flow cytometry, initially with cloned scFv phage and then with purified scFv protein. Per sample, 2×10^5 tumor cells were blocked with goat serum and incubated either with scFv phage (2-5×10^10) (1 h at RT) followed by mouse anti-M13 mAb (Serotec) (30 min on ice) and goat FITC-anti mouse (Pierce) (30 min on ice), or with purified scFv (1.25 to 40 μg/ml, routinely 10 to 15 μg/ml) (45 min on ice), followed by mouse anti-FLAG mAb M2 (Sigma) (30 min on ice) and goat FITC-anti mouse. Binding/washing buffer was TBS with or without divalent cations (1 mM Ca^2+, 1 mM Mg^2+, 0.2 mM Mn^2+). Alternatively, tumor cells were washed in 10 ml of plasma (prepared freshly from human blood anticoagulated with 50 nM D-Phe-D-Pro-D-arginyl chloromethyl ketone, PPACK, Felding-Habermann et al., J. Biol. Chem. 271: 5892-5900, 1996), resuspended in plasma and then incubated sequentially, without washing, with purified scFv (45 min on ice), followed by anti-FLAG M2 (30 min on ice) and FITC-anti mouse (30 min on ice). All samples were counter stained with propidium iodide (PI) and analyzed on a Becton-Dickinson FACScan, with live gate set to exclude PI positive cells.
To generate therapeutic reagents that specifically react with activated αvβ3, a phage display library of single chain antibody fragments (scFv) was exploited. This library was derived from cancer patient blood lymphocyte cDNA libraries and allowed us to test the hypothesis that the expressed immune repertoire contains antibodies that recognize integrin αvβ3, and distinguish between its activated and non-activated forms. Mao et al., Proc. Natl. Acad. Sci. U.S.A 96: 6953-6958, 1999. A subtractive panning approach was designed based on variants of MDA-MB 435 human breast cancer cells. […] Apparently, these cells are selected during metastasis, as variant cells isolated from lung and bone metastases in immune deficient mice express constitutively activated αvβ3. To establish a cell population that uniformly expresses non-activated αvβ3, MDA-MB 435 parental cells were cloned by limiting dilution, and clones tested for αvβ3 functionality. […] A cell line, MDA-MB 435 Lung-Lung, was established which expressed αvβ3 in a constitutively activated form. This variant stems from a lung metastase of an immune deficient mouse whose mammary fat pad had been injected with parental MDA-MB 435 cells. Felding-Habermann et al., Proc. Natl. Acad. Sci. U.S.A 98: 1853-1858, 2001; Rolli et al., Proc. Natl. Acad. Sci. U.S.A 100: 9482-9487, 2003. To enrich for the ability to colonize the lung from the blood stream, the Lung variant was subsequently injected intravenously, and tumor cells cultured 3 weeks later from the excised lung. Parent Combo cells were used to subtract the scFv phage library to eliminate antibodies against antigens shared by the MDA-MB 435 cell variants. […]

BMS breast cancer cells = assay: Tumor cell arrest during blood flow; format: cell-based; conditions: 3 μM scFv, human blood, collagen I matrix, shear rate 50 s^−1
Procedure: as §1, with “positions.” for “positions. Right: Number of arrested tumor cells in the presence of 3 μM non-function blocking anti αv scFv Bc-20 or function blocking anti αvβ3 scFvs Bc-12 or Bc-15. (D) scFv Bc-15 is internalized by human breast cancer cells and reduces cell proliferation. Left: confocal images of BMS cells incubated for 4 hrs with FITC-Bc-15 at 4° C. (binding) versus 37° C. (allowing internalization). Right: Phase contrast images of BMS cell cultures 4 days after seeding in the presence of 2 μM RGE containing scFv Mut-15, or RGD containing Bc-15.”
Tumor cell arrest during bloodflow. Breast cancer cell arrest during blood flow and interaction with platelets was measured as described. […] Adhesive events and cell interactions were visualized and recorded by fluorescence video microscopy and quantified by image acquisition at 30 predefined positions followed by computerized image analysis (MetaMorph, Universal Imaging). Tumor cells were stained with hydroethidine (red fluorescence) (20 μg/ml, 30 min, 37° C.), washed, and mixed with blood containing 10 μM mepacrine (green fluorescence). Blood cells, tumor cells, and platelets acquired green fluorescence and were visualized at 488/515 nm (excitation/emission). Tumor cells were identified by their unique red fluorescence at 543/590 nm. […]

human melanoma cells = conditions: mouse model; cited from earlier work

Molecule: GRGDSPK [a fibronectin derived peptide, reference compound]
- fibrinogen directed migration [1]: This effect was similar to that seen with 200 μM GRGDSPK
- adhesion to immobilized fibrinogen [2]: extent of inhibition by 3 μM scFv was similar to that observed with 200 μM GRGDSPK

B1: Bc-20: non-RGD containing, non-function blocking anti αv scFv (protein)
scFv: MAQVQLVQSGGGLVQPGGSLRLSCAASGFTFSSYWMSWVRQAPGKGLEWVANIKQDGSEKYYVDSVKGRFTISRDNAKNSLYLQMNSLRAEDTAVYYCARDGGFAGWAFDIWGQGTTVTVSSGGGGSGGGGSGGGGSDIQMTQSPSALSASVGDRVTITCRASQGLDNYLAWYQLQPGKAPKLLIYDAFTLQSGVPSRFSGGGSGTDFTLTISSLQPEDFATYFCQQLQSYPLTFGGGTKVEIKRGLGGLVDYKDDD
- reactivity with human tumor cells that express or lack αvβ3 (integrin αvβ3; M21, M21-LIIb, UCLA-P3 cells, flow cytometry): reacted with αv positive cells, regardless of the associated β subunit
- cation requirement of binding (integrin αvβ3; TBS with or without divalent cations): did not require divalent metal cations
- breast cancer cell arrest during blood flow (BMS breast cancer cells): no effect

B2: LM609: function blocking antibody against integrin αvβ3 (antibody, V domains shown)
VH: EVQLEESGGGLVKPGGSLKLSCAASGFAFSSYDMSWVRQIPEKRLEWVAKVSSGGGSTYYLDTVQGRFTISRDNAKNTLYLQMSSLNSEDTAMYYCARHNYGSFAYWGQGTLVTVSA
VL: ELVMTQTPATLSVTPGDSVSLSCRASQSISNHLHWYQQKSHESPRLLIKYASQSISGIPSRFSGSGSGTDFTLSINSVETEDFGMYFCQQSNSWPHTFGGGTKLEIKRA
- metastatic activity of human melanoma cells (human melanoma cells): inhibited metastatic activity of human melanoma cells in a mouse model
